According to US20070259336A1:

Experiments:
[1] = biological target: serum 12, head and neck cancer patient (Table 1) (human); test: 5 ug MBP competitor preincubated with serum 12, then IP of Ruc-p53
[2] = biological target: serum 15, head and neck cancer patient (Table 1) (human); test: 5 ug MBP competitor preincubated with serum 15, then IP of Ruc-p53
[3] = biological target: serum 33, colon cancer patient (Table 1) (human); test: 5 ug MBP competitor preincubated with serum 33, then IP of Ruc-p53
[4] = biological target: serum 34, colon cancer patient (Table 1) (human); test: 5 ug MBP competitor preincubated with serum 34, then IP of Ruc-p53
[5] = biological target: serum 22, breast cancer patient (Table 1) (human); test: 5 ug MBP competitor preincubated with serum 22, then IP of Ruc-Smad4
[6] = biological target: serum 25, breast cancer patient (Table 1) (human); test: 5 ug MBP competitor preincubated with serum 25, then IP of Ruc-c-Myc
[7] = biological target: serum 27, breast cancer patient (Table 1) (human); test: 5 ug MBP competitor preincubated with serum 27, then IP of Ruc-K-Ras
[8] = biological target: serum 32, colon cancer patient (Table 1) (human); test: 5 ug MBP competitor preincubated with serum 32, then IP of Ruc-K-Ras
[9] = biological target: serum 34, colon cancer patient (Table 1) (human); test: 5 ug MBP competitor preincubated with serum 34, then IP of Ruc-K-Ras
[10] = biological target: serum 35, colon cancer patient (Table 1) (human); test: 5 ug MBP competitor preincubated with serum 35, then IP of Ruc-K-Ras
[11] = biological target: serum 36, colon cancer patient (Table 1) (human); test: 5 ug MBP competitor preincubated with serum 36, then IP of Ruc-Smad4
[12] = biological target: serum 24, breast cancer patient (Table 1) (human); test: 5 ug MBP competitor preincubated with serum 24, then IP of Ruc-β-catenin-Δ1

percent competition [1]: 21% | percent competition [2]: 20% | percent competition [3]: 7% | percent competition [4]: 11% | percent competition [5]: 4% | percent competition [6]: 0% | percent competition [7]: 5% | percent competition [8]: 25% | percent competition [9]: 4% | percent competition [10]: 16% | percent competition [11]: 0% | percent competition [12]: 23%
B1: MBP fusion containing the SPEC2 cDNA (protein, UniProt Q9NRR3 1-84, looked up, not shown: large carriers)
chain: MSEFWLCFNCCIAEQPQPKRRRRIDRSMIGEPTNFVHTAHVGSGDLFSGMNSVSSIQNQMQSKGGYGGGMPANVQMQLVDTKAG
